Measured values from article PMC8032985, “The Interaction Mechanism of Intrinsically Disordered PP2A Inhibitor Proteins ARPP-16 and ARPP-19 With PP2A” (Frontiers in Molecular Biosciences, 2021).

B1: PP2A regulatory subunit B56δ (natural protein)
chain: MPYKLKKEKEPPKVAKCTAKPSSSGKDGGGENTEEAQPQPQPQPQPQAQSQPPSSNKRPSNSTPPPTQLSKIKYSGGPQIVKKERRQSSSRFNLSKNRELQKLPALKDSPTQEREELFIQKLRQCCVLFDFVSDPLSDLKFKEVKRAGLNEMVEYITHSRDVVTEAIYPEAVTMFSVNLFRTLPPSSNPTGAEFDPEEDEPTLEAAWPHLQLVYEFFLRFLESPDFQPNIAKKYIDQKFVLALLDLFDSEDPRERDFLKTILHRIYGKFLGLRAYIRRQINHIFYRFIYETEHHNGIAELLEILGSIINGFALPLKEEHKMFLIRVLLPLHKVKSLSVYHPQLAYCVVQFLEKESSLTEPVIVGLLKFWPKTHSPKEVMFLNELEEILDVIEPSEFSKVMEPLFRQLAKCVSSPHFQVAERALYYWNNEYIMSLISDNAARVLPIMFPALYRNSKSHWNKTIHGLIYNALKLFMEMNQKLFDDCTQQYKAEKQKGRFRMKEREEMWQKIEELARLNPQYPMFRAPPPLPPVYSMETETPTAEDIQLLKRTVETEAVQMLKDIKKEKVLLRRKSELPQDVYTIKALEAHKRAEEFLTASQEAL
modifications: NT-647-NHS fluorescent dye (Monolith NT Protein labeling kit red NHS)
B2: PP2A regulatory subunit B56ε (natural protein)
chain: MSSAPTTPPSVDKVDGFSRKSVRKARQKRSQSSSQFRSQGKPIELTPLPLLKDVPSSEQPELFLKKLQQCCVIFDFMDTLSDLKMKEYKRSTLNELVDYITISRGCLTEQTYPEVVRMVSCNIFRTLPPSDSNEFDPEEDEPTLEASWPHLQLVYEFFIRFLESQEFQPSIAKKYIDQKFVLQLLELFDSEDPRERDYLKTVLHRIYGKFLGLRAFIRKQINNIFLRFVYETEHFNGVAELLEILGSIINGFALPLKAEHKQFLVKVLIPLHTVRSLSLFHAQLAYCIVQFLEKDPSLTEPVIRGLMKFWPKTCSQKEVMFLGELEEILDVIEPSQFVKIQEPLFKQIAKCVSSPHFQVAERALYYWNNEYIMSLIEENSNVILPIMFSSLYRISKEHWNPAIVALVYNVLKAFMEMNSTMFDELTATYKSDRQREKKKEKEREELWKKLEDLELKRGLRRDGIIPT
modifications: NT-647-NHS fluorescent dye (Monolith NT Protein labeling kit red NHS)

Legend:
Experiment in all cases: MST; NT-647-NHS-labelled PP2A subunit at 20 nM as target, 12-point twofold dilution series of unlabelled ARPP as ligand; SEC buffer with 0.05% Tween-20; triplicate; single-site binding model
Conditions in all cases: both partners purified
[1] = molecular target: B1
[2] = molecular target: T1, PP2A regulatory subunit B56γ (NT-647-NHS fluorescent dye (Monolith NT Protein labeling kit red NHS))
T1 construct: one residue left at the N-terminus after TEV cleavage; PP2A regulatory subunit B56γ, UniProt Q13362-1; source: E. coli BL21 Gold, purified (glutathione agarose, TEV cleavage, SEC); not shown: GST, N-terminal, cleaved
T1 sequence (Q13362 whole entry): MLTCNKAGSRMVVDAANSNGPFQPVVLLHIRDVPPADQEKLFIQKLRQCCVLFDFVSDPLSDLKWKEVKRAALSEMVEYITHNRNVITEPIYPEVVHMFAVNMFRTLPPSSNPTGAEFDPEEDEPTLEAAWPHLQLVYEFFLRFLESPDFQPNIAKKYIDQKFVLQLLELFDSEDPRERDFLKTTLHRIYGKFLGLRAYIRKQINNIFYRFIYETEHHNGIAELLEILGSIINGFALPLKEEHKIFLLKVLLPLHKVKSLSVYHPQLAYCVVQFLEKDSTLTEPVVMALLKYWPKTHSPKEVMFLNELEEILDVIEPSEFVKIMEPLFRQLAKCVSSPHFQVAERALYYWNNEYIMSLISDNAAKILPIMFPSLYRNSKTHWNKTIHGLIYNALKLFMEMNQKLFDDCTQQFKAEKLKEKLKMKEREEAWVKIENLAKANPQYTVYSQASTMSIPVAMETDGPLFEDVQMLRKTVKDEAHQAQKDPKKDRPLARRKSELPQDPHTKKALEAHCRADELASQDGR

[3] = molecular target: B2
[4] = molecular target: PP2A regulatory subunit B56α (NT-647-NHS fluorescent dye (Monolith NT Protein labeling kit red NHS))
[5] = molecular target: T2, PP2A scaffolding subunit PR65α, full length (UniProt P30153 1-589, NT-647-NHS fluorescent dye (Monolith NT Protein labeling kit red NHS) in the MST; unlabelled in the NMR titration)
T2 construct: PP2A scaffolding subunit PR65α, full length; pGTvL1-SGC vector, expressed and purified as the ARPP proteins; also called PP2A A-subunit; A-subunit; source: E. coli BL21 Gold, purified (glutathione agarose, TEV cleavage, SEC); not shown: GST, N-terminal, cleaved
T2 sequence (P30153 whole entry): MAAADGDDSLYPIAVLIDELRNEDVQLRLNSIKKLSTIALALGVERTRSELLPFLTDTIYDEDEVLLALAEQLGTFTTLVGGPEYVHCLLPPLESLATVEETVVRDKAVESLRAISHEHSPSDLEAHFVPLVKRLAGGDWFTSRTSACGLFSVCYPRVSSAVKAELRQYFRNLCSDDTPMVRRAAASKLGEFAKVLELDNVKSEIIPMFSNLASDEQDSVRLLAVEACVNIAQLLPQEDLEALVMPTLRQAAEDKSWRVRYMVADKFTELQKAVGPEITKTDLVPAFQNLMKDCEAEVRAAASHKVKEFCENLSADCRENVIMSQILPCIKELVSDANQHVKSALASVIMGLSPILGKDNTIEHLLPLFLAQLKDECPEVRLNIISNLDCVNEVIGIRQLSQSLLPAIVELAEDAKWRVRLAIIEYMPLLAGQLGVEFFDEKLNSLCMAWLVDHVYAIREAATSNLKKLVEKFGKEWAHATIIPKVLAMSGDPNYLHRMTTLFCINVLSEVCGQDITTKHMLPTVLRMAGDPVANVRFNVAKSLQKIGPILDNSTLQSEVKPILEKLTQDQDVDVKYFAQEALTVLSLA

[6] = molecular target: T3, ARPP-16 (splice variant of ARPP-19), wild type (human, 15N-labelled in the NMR titration)
T3 construct: one residue left at the N-terminus after TEV cleavage; human ARPP-16, splice variant of ARPP-19 lacking its first 16 residues, UniProt P56211-2; numbers count on: ARPP-16 (P56211-2); pGTvL1-SGC vector; also called ARPP-16 WT; source: E. coli BL21 Gold, purified (glutathione agarose, TEV cleavage, SEC); not shown: GST, N-terminal, cleaved

[7] = molecular target: T4, ARPP-16 S88E phosphomimicking mutant (human)
T4 construct: one residue left at the N-terminus after TEV cleavage; human ARPP-16, UniProt P56211-2, with S88E; numbers count on: ARPP-16 (P56211-2); source: E. coli BL21 Gold, purified (glutathione agarose, TEV cleavage, SEC); not shown: GST, N-terminal, cleaved
T4 sequence (Q14738 whole entry S88E): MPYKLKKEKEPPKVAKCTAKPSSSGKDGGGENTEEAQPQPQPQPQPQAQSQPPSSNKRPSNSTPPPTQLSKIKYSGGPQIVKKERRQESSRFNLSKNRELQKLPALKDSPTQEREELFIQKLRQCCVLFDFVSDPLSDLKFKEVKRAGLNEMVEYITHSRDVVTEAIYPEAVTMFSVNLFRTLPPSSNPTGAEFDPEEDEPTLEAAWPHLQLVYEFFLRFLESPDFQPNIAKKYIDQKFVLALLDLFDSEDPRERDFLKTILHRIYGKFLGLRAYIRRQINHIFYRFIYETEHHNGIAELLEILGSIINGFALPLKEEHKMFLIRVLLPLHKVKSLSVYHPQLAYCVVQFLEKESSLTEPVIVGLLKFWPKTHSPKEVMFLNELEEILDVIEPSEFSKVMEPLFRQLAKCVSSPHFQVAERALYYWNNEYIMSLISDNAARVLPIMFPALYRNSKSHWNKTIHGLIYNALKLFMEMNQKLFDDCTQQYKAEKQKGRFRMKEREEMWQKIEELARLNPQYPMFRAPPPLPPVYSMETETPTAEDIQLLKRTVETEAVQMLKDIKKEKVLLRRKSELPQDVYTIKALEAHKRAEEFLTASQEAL

[8] = molecular target: T5, ARPP-16 S46E phosphomimicking mutant (human)
T5 construct: one residue left at the N-terminus after TEV cleavage; human ARPP-16, UniProt P56211-2, with S46E; numbers count on: ARPP-16 (P56211-2); source: E. coli BL21 Gold, purified (glutathione agarose, TEV cleavage, SEC); not shown: GST, N-terminal, cleaved

Kd [1] [µM]	Kd [2] [µM]	Kd [3] [µM]	Kd [4] [µM]	Kd [5] [µM]	Kd [6] [µM]	Kd [7] [µM]	Kd [8] [µM]	Binder
430	> 1300	> 800	470	7.9	–	–	–	cAMP-regulated phosphoprotein 19 (ARPP-19), wild type (natural protein, 15N-labelled in the NMR titration) MSAEVPEAASAEEQKEMEDKVTSPEKAEEAKLKARYPHLGQKPGGSDFLRKRLQKGQKYFDSGDYNMAKAKMKNKQLPTAAPDKTEVTGDHIPTPQDLPQRKPSLVASKLAG
95	195	> 700	110	7.5	–	–	–	ARPP-19 S62E phosphomimicking mutant (natural protein) MSAEVPEAASAEEQKEMEDKVTSPEKAEEAKLKARYPHLGQKPGGSDFLRKRLQKGQKYFDEGDYNMAKAKMKNKQLPTAAPDKTEVTGDHIPTPQDLPQRKPSLVASKLAG
195	320	–	85	6.1	–	–	–	ARPP-19 S104E phosphomimicking mutant (natural protein) MSAEVPEAASAEEQKEMEDKVTSPEKAEEAKLKARYPHLGQKPGGSDFLRKRLQKGQKYFDSGDYNMAKAKMKNKQLPTAAPDKTEVTGDHIPTPQDLPQRKPELVASKLAG
–	–	–	–	–	> 700	40.7	110	B1
–	–	–	–	–	> 500	–	250	B2
